Results: publication PMC10279920, “Single-molecule visualization of Pif1 helicase translocation on single-stranded DNA” (The Journal of Biological Chemistry, 2023)
Numbering of substitutions follows the chain as printed.

What was measured:
Test in all cases: EMSA; no ATP, 5 mM Mg2+; 35 mM Tris-HCl pH 7.5, 1 mM DTT, 5 mM MgCl2, 60 mM KCl, 0.1 mg/ml BSA, no ATP, 30 min at 30 C; 5 nM ssDNA
Conditions in all cases: protein: recombinant; tags: N-terminal superfolder GFP; Ni-NTA purified; label: 5' Alexa647
[1] = target: T1, GFP-Pif1 L310A (Saccharomyces cerevisiae, UniProt P07271 40-859, L310A)
T1 sequence: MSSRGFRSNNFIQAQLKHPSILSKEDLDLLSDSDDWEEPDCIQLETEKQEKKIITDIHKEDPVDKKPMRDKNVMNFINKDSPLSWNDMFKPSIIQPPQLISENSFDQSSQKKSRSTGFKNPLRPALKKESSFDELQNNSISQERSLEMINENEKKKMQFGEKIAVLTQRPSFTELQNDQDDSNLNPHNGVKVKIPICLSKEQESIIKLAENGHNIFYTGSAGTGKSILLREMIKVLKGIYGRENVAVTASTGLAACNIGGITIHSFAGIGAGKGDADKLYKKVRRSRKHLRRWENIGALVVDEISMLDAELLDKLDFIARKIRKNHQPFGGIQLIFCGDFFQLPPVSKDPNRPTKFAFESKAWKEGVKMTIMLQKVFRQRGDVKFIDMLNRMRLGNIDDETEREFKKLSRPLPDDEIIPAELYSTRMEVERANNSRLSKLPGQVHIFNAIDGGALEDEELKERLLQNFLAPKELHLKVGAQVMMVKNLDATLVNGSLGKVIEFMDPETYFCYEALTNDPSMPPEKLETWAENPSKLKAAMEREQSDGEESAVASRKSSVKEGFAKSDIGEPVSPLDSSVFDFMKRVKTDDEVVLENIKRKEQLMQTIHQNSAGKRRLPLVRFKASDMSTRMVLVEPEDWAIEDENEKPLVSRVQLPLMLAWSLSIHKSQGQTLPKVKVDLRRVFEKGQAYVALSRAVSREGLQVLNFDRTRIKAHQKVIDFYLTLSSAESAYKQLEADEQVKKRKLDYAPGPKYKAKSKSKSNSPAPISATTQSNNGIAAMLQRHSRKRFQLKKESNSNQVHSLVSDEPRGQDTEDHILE

[2] = target: T2, GFP-Pif1 F723A (Saccharomyces cerevisiae, UniProt P07271 40-859, F723A)
T2 sequence: T1 sequence with A271L, F684A

[3] = target: T3, GFP-Pif1 K264A (Saccharomyces cerevisiae, UniProt P07271 40-859, K264A)
T3 sequence: T1 sequence with K225A, A271L

GCTAGCAGTAGCCAGCATCGAACGTACGATCGGTAACGTA (ssDNA) [40-nt ssDNA] was tested, and the Kd [1] was 27.8 nM, the Kd [2] was 55.6 ± 18.5 nM and the Kd [3] was 12.1 nM.
